Laboratory results: patent US20230407373A1 (priority 2020, published 2023)
Like-named read-outs stand apart in the source and are kept apart here.

How the values were obtained:
SARS-CoV-2 gRNA = assay type: binding; details: for target (unweighted spectral count of the protein in the RNP capture): LC-MS/MS, Probe I sample (first 199 lines of Table 2)
[1] = tested on: SARS-CoV-2 gRNA and sgRNAs; assay type: binding; details: for target (unweighted spectral count in RNP capture): Probe II capture, LC-MS/MS LFQ; for background (unweighted spectral count in control): no-probe control pull-down, used as background for Probe II
HCoV-OC43 gRNA and sgRNA = assay type: binding; details: for target (unweighted spectral count, OC43 Probe II capture) / target (unweighted spectral count): tested against no-probe control; for target (unweighted spectral count, OC43 Probe II capture): FDR<10%; for target (unweighted spectral count, OC43 Probe II) / background (unweighted spectral count, no-probe control): type n_48_v, 48 hpi; for target (unweighted spectral count, OC43 Probe II): OC43 Probe II capture on infected cells; for background (unweighted spectral count, no-probe control): no-probe control on infected cells; for target (spectral count) / background (spectral count): type s_36_m, Probe II; for target (spectral count): HCoV-OC43-infected HCT-8 cells; for background (spectral count): uninfected-probe control; for target (unweighted spectral count): OC43 Probe II, infected cells
gRNA of HCoV-OC43 = assay type: binding; details: for target (spectral count, OC43 Probe I RNP capture) / background (spectral count, no-probe control): type n_48_v: 48 hours post-infection; for target (spectral count, OC43 Probe I RNP capture): infected cells, unweighted spectral count; for background (spectral count, no-probe control): no-probe control on infected cells; for target (spectral count) / background (spectral count): type g_36_m, 36 hpi, Probe I; for target (spectral count): HCoV-OC43-infected HCT-8 cells; for background (spectral count): uninfected-probe control
SARS-CoV-2 = assay type: cell-based

Molecule	target (unweighted spectral count of the protein in the RNP capture) (SARS-CoV-2 gRNA)	target (unweighted spectral count in RNP capture) ([1]; […])	background (unweighted spectral count in control) [1]	target (unweighted spectral count, OC43 Probe II capture) (HCoV-OC43 gRNA and sgRNA; 36 hpi, type n_36_v)	target (unweighted spectral count, OC43 Probe II) (HCoV-OC43 gRNA and sgRNA)	background (unweighted spectral count, no-probe control) (HCoV-OC43 gRNA and sgRNA)	target (spectral count) (HCoV-OC43 gRNA and sgRNA; 36 hpi)	background (spectral count) (HCoV-OC43 gRNA and sgRNA; 36 hpi)	target (spectral count, OC43 Probe I RNP capture) (gRNA of HCoV-OC43)	background (spectral count, no-probe control) (gRNA of HCoV-OC43)	target (unweighted spectral count) (HCoV-OC43 gRNA and sgRNA; 12 hpi (type n_12_v))	target (unweighted spectral count) (HCoV-OC43 gRNA and sgRNA; 24 hpi (type n_24_v))	target (spectral count) (gRNA of HCoV-OC43)	background (spectral count) (gRNA of HCoV-OC43)	further results
SAFB: host protein, UniProt Q15424 (protein, UniProt Q15424 2-915, looked up) Scaffold attachment factor B1: AETLSGLGDSGAAGAAALSSASSETGTRRLSDLRVIDLRAELRKRNVDSSGNKSVLMERLKKAIEDEGGNPDEIEITSEGNKKTSKRSSKGRKPEEEGVEDNGLEENSGDGQEDVETSLENLQDIDIMDISVLDEAEIDNGSVADCVEDDDADNLQESLSDSRELVEGEMKELPEQLQEHAIEDKETINNLDTSSSDFTILQEIEEPSLEPENEKILDILGETCKSEPVKEESSELEQPFAQDTSSVGPDRKLAEEEDLFDSAHPEEGDLDLASESTAHAQSSKADSLLAVVKREPAEQPGDGERTDCEPVGLEPAVEQSSAASELAEASSEELAEAPTEAPSPEARDSKEDGRKFDFDACNEVPPAPKESSTSEGADQKMSSPEDDSDTKRLSKEEKGRSSCGRNFWVSGLSSTTRATDLKNLFSKYGKVVGAKVVTNARSPGARCYGFVTMSTAEEATKCINHLHKTELHGKMISVEKAKNEPVGKKTSDKRDSDGKKEKSSNSDRSTNLKRDDKCDRKDDAKKGDDGSGEKSKDQDDQKPGPSERSRATKSGSRGTERTVVMDKSKGVPVISVKTSGSKERASKSQDRKSASREKRSVVSFDKVKEPRKSRDSESHSRVRERSEREQRMQAQWEREERERLEIARERLAFQRQRLERERMERERLERERMHVEHERRREQERIHREREELRRQQELRYEQERRPAVRRPYDLDRRDDAYWPEAKRAALDERYHSDFNRQDRFHDFDHRDRGRYPDHSVDRREGSRSMMGEREGQHYPERHGGPERHGRDSRDGWGGYGSDKRMSEGRGLPPPPRRDWGDHGRREDDRSWQGTADGGMMDRDHKRWQGGERSMSGHSGPGHMMNRGGMSGRGSFAPGGASRGHPIPHGGMQGGFGGQSRGSRPSDARFTRRY	20	11	1	7	9	1	7	1	11	1	–	–	–	–	–
SSBP1 (protein, UniProt Q04837 17-148, looked up) Single-stranded DNA-binding …: ESETTTSLVLERSLNRVHLLGRVGQDPVLRQVEGKNPVTIFSLATNEMWRSGDSEVYQLGDVSQKTTWHRISVFRPGLRDVAYQYVKKGSRIYLEGKIDYGEYMDKNNVRRQATTIIADNIIFLSDQTKEKE	14	7	1	12	14	3	–	–	16	3	44	25	–	–	–
SF1: host protein, UniProt Q15637 (protein, UniProt Q15637 2-639, looked up) Splicing factor 1: ATGANATPLDFPSKKRKRSRWNQDTMEQKTVIPGMPTVIPPGLTREQERAYIVQLQIEDLTRKLRTGDLGIPPNPEDRSPSPEPIYNSEGKRLNTREFRTRKKLEEERHNLITEMVALNPDFKPPADYKPPATRVSDKVMIPQDEYPEINFVGLLIGPRGNTLKNIEKECNAKIMIRGKGSVKEGKVGRKDGQMLPGEDEPLHALVTANTMENVKKAVEQIRNILKQGIETPEDQNDLRKMQLRELARLNGTLREDDNRILRPWQSSETRSITNTTVCTKCGGAGHIASDCKFQRPGDPQSAQDKARMDKEYLSLMAELGEAPVPASVGSTSGPATTPLASAPRPAAPANNPPPPSLMSTTQSRPPWMNSGPSESRPYHGMHGGGPGGPGGGPHSFPHPLPSLTGGHGGHPMQHNPNGPPPPWMQPPPPPMNQGPHPPGHHGPPPMDQYLGSTPVGSGVYRLHQGKGMMPPPPMGMMPPPPPPPSGQPPPPPSGPLPPWQQQQQQPPPPPPPSSSMASSTPLPWQQNTTTTTTSAGTGSIPPWQQQQAAAAASPGAPQMQGNPTMVPLPPGVQPPLPPGAPPPPPPPPPGSAGMMYAPPPPPPPPMDPSNFVTMMGMGVAGMPPFGMPPAPPPPPPQN	17	–	–	8	–	–	8	1	12	1	–	–	12	2	target (unweighted spectral count of the protein in the RNP capture experiment) ([1]; […], LC-MS/MS label-free quantification, probe pool not given): 6; back-ground (unweighted spectral count of the protein in the control experiment) ([1]; protein background of the control (e.g. no-probe) experiment, […]): 1; target (unweighted spectral count, OC43 Probe II capture) (HCoV-OC43 gRNA and sgRNA; 24 hpi, type n_24_v): 4
CSDE1: host protein, UniProt O75534 (protein, UniProt O75534 1-798, looked up) Cold shock domain-containing …: MSFDPNLLHNNGHNGYPNGTSAALRETGVIEKLLTSYGFIQCSERQARLFFHCSQYNGNLQDLKVGDDVEFEVSSDRRTGKPIAVKLVKIKQEILPEERMNGQVVCAVPHNLESKSPAAPGQSPTGSVCYERNGEVFYLTYTPEDVEGNVQLETGDKINFVIDNNKHTGAVSARNIMLLKKKQARCQGVVCAMKEAFGFIERGDVVKEIFFHYSEFKGDLETLQPGDDVEFTIKDRNGKEVATDVRLLPQGTVIFEDISIEHFEGTVTKVIPKVPSKNQNDPLPGRIKVDFVIPKELPFGDKDTKSKVTLLEGDHVRFNISTDRRDKLERATNIEVLSNTFQFTNEAREMGVIAAMRDGFGFIKCVDRDVRMFFHFSEILDGNQLHIADEVEFTVVPDMLSAQRNHAIRIKKLPKGTVSFHSHSDHRFLGTVEKEATFSNPKTTSPNKGKEKEAEDGIIAYDDCGVKLTIAFQAKDVEGSTSPQIGDKVEFSISDKQRPGQQVATCVRLLGRNSNSKRLLGYVATLKDNFGFIETANHDKEIFFHYSEFSGDVDSLELGDMVEYSLSKGKGNKVSAEKVNKTHSVNGITEEADPTIYSGKVIRPLRSVDPTQTEYQGMIEIVEEGDMKGEVYPFGIVGMANKGDCLQKGESVKFQLCVLGQNAQTMAYNITPLRRATVECVKDQFGFINYEVGDSKKLFFHVKEVQDGIELQAGDEVEFSVILNQRTGKCSACNVWRVCEGPKAVAAPRPDRLVNRLKNITLDDASAPRLMVLRQPRGPDNSMGFGAERKIRQAGVID	37	92	1	–	21	1	24	3	20	1	–	18	–	–	enrichment in SARS-CoV-2 Probe I RNP capture (SARS-CoV-2 gRNA): enriched; antiviral or proviral role of the host protein indicated by knockdown (SARS-CoV-2): proviral effects; enrichment in SARS-CoV-2 Probe II RNP capture [1]: enriched
HDLBP: host protein, UniProt Q00341 (protein, UniProt Q00341 2-1268, looked up) Vigilin: SSVAVLTQESFAEHRSGLVPQQIKVATLNSEEESDPPTYKDAFPPLPEKAACLESAQEPAGAWGNKIRPIKASVITQVFHVPLEERKYKDMNQFGEGEQAKICLEIMQRTGAHLELSLAKDQGLSIMVSGKLDAVMKARKDIVARLQTQASATVAIPKEHHRFVIGKNGEKLQDLELKTATKIQIPRPDDPSNQIKITGTKEGIEKARHEVLLISAEQDKRAVERLEVEKAFHPFIAGPYNRLVGEIMQETGTRINIPPPSVNRTEIVFTGEKEQLAQAVARIKKIYEEKKKKTTTIAVEVKKSQHKYVIGPKGNSLQEILERTGVSVEIPPSDSISETVILRGEPEKLGQALTEVYAKANSFTVSSVAAPSWLHRFIIGKKGQNLAKITQQMPKVHIEFTEGEDKITLEGPTEDVNVAQEQIEGMVKDLINRMDYVEINIDHKFHRHLIGKSGANINRIKDQYKVSVRIPPDSEKSNLIRIEGDPQGVQQAKRELLELASRMENERTKDLIIEQRFHRTIIGQKGERIREIRDKFPEVIINFPDPAQKSDIVQLRGPKNEVEKCTKYMQKMVADLVENSYSISVPIFKQFHKNIIGKGGANIKKIREESNTKIDLPAENSNSETIIITGKRANCEAARSRILSIQKDLANIAEVEVSIPAKLHNSLIGTKGRLIRSIMEECGGVHIHFPVEGSGSDTVVIRGPSSDVEKAKKQLLHLAEEKQTKSFTVDIRAKPEYHKFLIGKGGGKIRKVRDSTGARVIFPAAEDKDQDLITIIGKEDAVREAQKELEALIQNLDNVVEDSMLVDPKHHRHFVIRRGQVLREIAEEYGGVMVSFPRSGTQSDKVTLKGAKDCVEAAKKRIQEIIEDLEAQVTLECAIPQKFHRSVMGPKGSRIQQITRDFSVQIKFPDREENAVHSTEPVVQENGDEAGEGREAKDCDPGSPRRCDIIIISGRKEKCEAAKEALEALVPVTIEVEVPFDLHRYVIGQKGSGIRKMMDEFEVNIHVPAPELQSDIIAITGLAANLDRAKAGLLERVKELQAEQEDRALRSFKLSVTVDPKYHPKIIGRKGAVITQIRLEHDVNIQFPDKDDGNQPQDQITITGYEKNTEAARDAILRIVGELEQMVSEDVPLDHRVHARIIGARGKAIRKIMDEFKVDIRFPQSGAPDPNCVTVTGLPENVEEAIDHILNLEEEYLADVVDSEALQVYMKPPAHEEAKAPSRGFVVRDAPWTASSSEKAPDMSSSEEFPSFGAQVAPKTLPWGPKR	23	–	–	–	50	2	36	1	16	2	11	24	26	3	change in viral RNA levels (gRNA, N sgRNA) after siRNA depletion (SARS-CoV-2; Calu-3 cells, 50 nM siRNA, RT-qPCR, relative to siNC): increased the viral RNA levels
